The chains are these.
B1: Cytochrome c-551, P00099 (parent)
chain: MKPYALLSLLATGTLLAQGAWAEDPEVLFKNKGCVACHAIDTKMVGPAYKDVAAKFAGQAGAEAELAQRIKNGSQGVWGPIPMPPNAVSDDEAQTLAKWVLSQK

Variants of B1 are the subject of one data set. As to conditions: Pseudomonas aeruginosa (strain ATCC 15692 / DSM 22644 / CIP 104116 / JCM 14847 / LMG 12228 / 1C / PRS 101 / PAO1); pH 5; 25 °C; GdnHCl; DSC; Unknown; reversible: yes; structure 451C; whole UniProt chain shown.
Turning to MKPYALLSLLATGTLLAQGAWAEDPEVLAKNKGCMACHAIDTKMVGPAYKDVAAKYAGQAGAEAYLAQRIKNGSQGVWGPIPMPPNAVSDDEAQTLAKWILSQK [F29A V35M F56Y E65Y V100I], the “denaturant midpoint (higher = more stable)” value turned out to be 4.39 M.

The data set is the same for the next values; noted with them: Pseudomonas aeruginosa (strain ATCC 15692 / DSM 22644 / CIP 104116 / JCM 14847 / LMG 12228 / 1C / PRS 101 / PAO1); pH 5; 47.3 °C; Thermal; DSC; Unknown; reversible: yes; structure 451C; whole UniProt chain shown.
As to MKPYALLSLLATGTLLAQGAWAEDPEVLAKNKGCMACHAIDTKMVGPAYKDVAAKYAGQAGAEAYLAQRIKNGSQGVWGPIPMPPNAVSDDEAQTLAKWILSQK [F29A V35M F56Y E65Y V100I], the Tm was 80.2 °C; the “change of melting temperature, mutant - wild type (higher = more stable)” value amounted to 32.9 °C; the “heat capacity change of unfolding” value was 1.07 kcal/mol/K.

The same data set, now with this note: Pseudomonas aeruginosa (strain ATCC 15692 / DSM 22644 / CIP 104116 / JCM 14847 / LMG 12228 / 1C / PRS 101 / PAO1); pH 5; Thermal; DSC; Unknown; reversible: yes; structure 451C; whole UniProt chain shown.
With MKPYALLSLLATGTLLAQGAWAEDPEVLAKNKGCMACHAIDTKMVGPAYKDVAAKYAGQAGAEAYLAQRIKNGSQGVWGPIPMPPNAVSDDEAQTLAKWILSQK [F29A V35M F56Y E65Y V100I], the Tm was 80.2 °C; the “change of melting temperature, mutant - wild type (higher = more stable)” value came to 32.9 °C; the “heat capacity change of unfolding” value stood at 1.07 kcal/mol/K; the “unfolding enthalpy (calorimetric)” value amounted to 46 kcal/mol.

For orientation: Tm means the temperature at which the thermal transition is half complete.
